Test results published in PMC1450329.
Numbering of substitutions follows the chain as printed.

T1: MutS wild-type (Escherichia coli, UniProt P23909 1-853)
T1 sequence: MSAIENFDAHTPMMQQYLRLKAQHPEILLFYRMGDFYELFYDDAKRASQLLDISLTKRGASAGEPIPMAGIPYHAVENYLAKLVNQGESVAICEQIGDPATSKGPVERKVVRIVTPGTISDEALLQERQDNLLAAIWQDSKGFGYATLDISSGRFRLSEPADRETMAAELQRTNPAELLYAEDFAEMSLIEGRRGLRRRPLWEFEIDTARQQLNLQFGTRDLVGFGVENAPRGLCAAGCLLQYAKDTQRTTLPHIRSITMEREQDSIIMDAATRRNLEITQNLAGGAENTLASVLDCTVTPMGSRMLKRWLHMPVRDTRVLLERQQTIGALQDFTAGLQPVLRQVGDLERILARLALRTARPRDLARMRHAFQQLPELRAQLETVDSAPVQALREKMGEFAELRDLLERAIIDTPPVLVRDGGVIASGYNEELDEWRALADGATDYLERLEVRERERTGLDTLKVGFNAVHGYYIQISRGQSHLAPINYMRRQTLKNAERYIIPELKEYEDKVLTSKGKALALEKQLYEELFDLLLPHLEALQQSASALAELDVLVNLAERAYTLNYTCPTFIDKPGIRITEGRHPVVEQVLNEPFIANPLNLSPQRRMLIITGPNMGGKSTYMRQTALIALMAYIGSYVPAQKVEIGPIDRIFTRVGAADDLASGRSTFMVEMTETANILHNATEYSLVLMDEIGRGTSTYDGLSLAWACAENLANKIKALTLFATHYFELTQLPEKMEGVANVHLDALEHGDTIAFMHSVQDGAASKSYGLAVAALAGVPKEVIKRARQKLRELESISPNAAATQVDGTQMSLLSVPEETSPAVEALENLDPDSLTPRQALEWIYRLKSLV

T2: MutS-E38A (Escherichia coli, UniProt P23909 1-853, E38A)
T2 sequence: T1 sequence with E38A

B1: G/C homoduplex 30mer (dsDNA)
DNA 1: ACCTGTCTGGCAACACTGTCACCGTCGTAT
DNA 2: ATACGACGGTGACAGTGTTGCCAGACAGGT
B2: CP-GpG/CC cisplatinated homoduplex 30mer (dsDNA)
DNA 1: B1 DNA 1
DNA 2: B1 DNA 2
modifications: cisplatin 1,2-GpG intrastrand cross-link at G9-G10 of strand 1
B3: CP-GpG/CT cisplatinated mismatch 30mer (dsDNA)
DNA 1: B1 DNA 1
DNA 2: B1 DNA 2 with C22T
modifications: cisplatin 1,2-GpG intrastrand cross-link at G9-G10 of strand 1
B4: G/T mismatch heteroduplex 30mer (dsDNA)
DNA 1: B1 DNA 1
DNA 2: B1 DNA 2 with C22T

These binders were tested against T1, MutS wild-type (assay: fluorescence anisotropy).

B1 and B2 are within error of each other in Kd: 1080 ± 720 nM for the first, 1340 ± 580 nM for the second.

Each binder was assayed against T2, MutS-E38A (assay: fluorescence anisotropy).

First: B1
Second: B3
The Kd of the first is 3-fold higher: 610 ± 58 nM for the first, 200 ± 69 nM for the second. The second binds more tightly here.

Going from B2 to B4, the Kd falls from 600 ± 78 nM to 160 ± 58 nM (3.8-fold). The second binds more tightly here.

Target: T1, MutS wild-type
Assay: fluorescence anisotropy
Remark: another data set of the same source

First: B3
Second: B2
The Kd of the first is 3.6-fold lower: 360 ± 46 nM for the first, 1300 ± 65 nM for the second. The first binds more tightly here.

Binder B4 has a Kd of 100 ± 8 nM.
